Data reported in patent EP4261278A1.

Molecular target: NDM-type carbapenemase (New Delhi metallo-β-lactamase), recombinant
Test: indirect ELISA, plate coated with 0.2 µg/mL NDM carbapenemase, goat anti-mouse secondary antibody, TMB
Details: scale: reciprocal dilution

B1: anti-NDM-type carbapenemase mouse mAb 1GH10 (antibody, V domains shown)
VH: SRDYGLRVELVRPGTSVKVSCKASGYAFSNYLIEWVKQRPGQGLEWIGVINPGRDDTNYNEKFKGKATLTADKSSSTAYMHLSSLTSDDSAVYFCARFPSILRYDSGSFSYFGLDCWGQGTSVTVSS
VL: DVLMTQTPLSLSVSLGDQASISCRSSQSIVHSDGNTYLDWYLQKPGQSPKLLIYKVSNRFSGVPDRFSGSGSGTDFTLKITRVEAEDLGVYYCFQISRVPFTFGSGTKLEIKR
titer: > 1.28e+06

B2: anti-NDM-type carbapenemase mouse mAb 12HE11 (antibody, V domains shown)
VH: VQLHESGPELVKPGASVKLSCTASGYTLSDYHVKWVKQNHGQSLEWIGDIRPQNGDIVYNQKFKDKATLTVDKSSTTAYIRLSSLTSEDSAVYYCAFHYYAYGKWFPYWGQGTLVTVS
VL: DILMTQSPSSLTVTAGEKVTLSCRSSQSLFNSGNQKNYLTWHQQKPGQSPKLLIYWAVTRESGVPDRFTGSGSGTDFTLTISSVQAEDLAIYYCQNDYSYPLTFGAGTKLELK
titer: > 1.28e+06
